# B1: Cyclin-Y (Homo sapiens), Q8ND76-1 (parent)
# chain: MGNTTSCCVSSSPKLRRNAHSRLESYRPDTDLSREDTGCNLQHISDRENIDDLNMEFNPSDHPRASTIFLSKSQTDVREKRKSLFINHHPPGQIARKYSSCSTIFLDDSTVSQPNLKYTIKCVALAIYYHIKNRDPDGRMLLDIFDENLHPLSKSEVPPDYDKHNPEQKQIYRFVRTLFSAAQLTAECAIVTLVYLERLLTYAEIDICPANWKRIVLGAILLASKVWDDQAVWNVDYCQILKDITVEDMNELERQFLELLQFNINVPSSVYAKYYFDLRSLAEANNLSFPLEPLSRERAHKLEAISRLCEDKYKDLRRSARKRSASADNLTLPRWSPAIIS
# Variants of: B1
# Conditions: with cdk16_human CDK16, Q00536
# Chain of cdk16_human CDK16, Q00536 (Q00536 whole entry): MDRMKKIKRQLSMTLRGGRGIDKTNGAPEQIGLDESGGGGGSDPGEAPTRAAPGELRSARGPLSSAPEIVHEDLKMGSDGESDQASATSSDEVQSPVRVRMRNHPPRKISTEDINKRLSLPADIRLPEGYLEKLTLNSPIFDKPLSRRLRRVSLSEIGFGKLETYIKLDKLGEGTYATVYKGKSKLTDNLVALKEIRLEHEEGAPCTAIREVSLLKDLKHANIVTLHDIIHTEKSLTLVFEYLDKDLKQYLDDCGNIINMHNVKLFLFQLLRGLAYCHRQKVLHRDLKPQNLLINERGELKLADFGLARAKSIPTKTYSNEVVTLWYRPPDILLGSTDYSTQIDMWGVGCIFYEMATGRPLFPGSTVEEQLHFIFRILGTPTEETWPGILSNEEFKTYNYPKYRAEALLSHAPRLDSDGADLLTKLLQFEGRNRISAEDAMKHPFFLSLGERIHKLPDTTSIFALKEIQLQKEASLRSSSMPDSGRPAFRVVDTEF
row,Variant,effect of a mutation on the interaction
1,L222A;S224A,decreasing interaction strength

# Variants of: B1
# Conditions: with cdk16_human CDK16, Q00536
# Remark: another data set of the same source
row,Variant,effect of a mutation on the interaction
1,L222A;S224A,disrupting interaction strength
